Experimental data reported in the supplement of paper PMC7125110.
± gives the standard error. For part of these data: Variants at the floor of the assay were thinned out.

B1: glmS ribozyme (parent)
chain: AUAAAAGCGCCAGAACUACAGAAAUGUAGUUGACGAGGAGGAGGUUUAUCGAAUUUUCGGCGGAUGCCUCCAAA

Assays:
Settings in all cases: with glucosamine-6-phosphate
glucosamine-6-phosphate [1] = variants of: B1; test: kcat; higher = faster cleavage; RNA array
Outline: (§1)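 Glucosamine-6-phosphate, from 40 μM to 10 mM in HEPES/KCl/Mg(OAc)2 buffer, was flowed over sequenced MiSeq chips carrying barcoded ribozyme variants transcribed in situ by E. coli RNA polymerase. A hybridised Cy3 probe tracked the variants at 37 °C as tiles were imaged over ~14 h. kobs, kcat and KM were obtained by fitting normalised per-tile medians to exponential decays and then applying weighted Michaelis–Menten fits across concentrations.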

glucosamine-6-phosphate [2] = variants of: B1; test: self-cleavage kobs at 40 uM GlcN6P; higher = faster cleavage; RNA array
Outline: as §1

glucosamine-6-phosphate [3] = variants of: B1; test: self-cleavage kobs at 10000 uM GlcN6P; higher = faster cleavage; RNA array
Outline: as §1

glucosamine-6-phosphate [4] = variants of: B1; test: self-cleavage kobs at 640 uM GlcN6P; higher = faster cleavage; RNA array
Outline: as §1

glucosamine-6-phosphate [5] = variants of: B1; test: self-cleavage kobs at 2500 uM GlcN6P; higher = faster cleavage; RNA array
Outline: as §1

glucosamine-6-phosphate [6] = variants of: B1; test: KM; higher = weaker cofactor use; RNA array
Outline: as §1

glucosamine-6-phosphate [7] = variants of: B1; test: self-cleavage kobs at 160 uM GlcN6P; higher = faster cleavage; RNA array
Outline: as §1

| Variant | kcat (glucosamine-6-phosphate [1]) | self-cleavage kobs at 40 uM GlcN6P (glucosamine-6-phosphate [2]) | self-cleavage kobs at 10000 uM GlcN6P (glucosamine-6-phosphate [3]) | self-cleavage kobs at 640 uM GlcN6P (glucosamine-6-phosphate [4]) | self-cleavage kobs at 2500 uM GlcN6P (glucosamine-6-phosphate [5]) | KM (glucosamine-6-phosphate [6]) | self-cleavage kobs at 160 uM GlcN6P (glucosamine-6-phosphate [7]) |
| --- | --- | --- | --- | --- | --- | --- | --- |
| AUAAAAGCGCCAGCACUACAGAAAUGUAGUUGACGAGGAGGAGAUUUAUCGAAUUUUCGGCGGAUGCCUCCAAA [A14C G44A] | 0.000834 ± 0.00022 s⁻¹ | < 1e-05 s⁻¹ | 4.02e-05 ± 1.1e-05 s⁻¹ |  |  |  |  |
| AUAAAAGCGCCAGCACUACAGAAAUGUAGUUGACGAGGAGGAGGUUUAUCGAAUUUUGGGCGGAUGCCUCCAAA [A14C C58G] | 0.000165 ± 6.6e-05 s⁻¹ |  | 0.000108 ± 1.2e-05 s⁻¹ | 3.92e-05 ± 1e-05 s⁻¹ | 4.23e-05 ± 8.3e-06 s⁻¹ |  |  |
| AUAAAAGCGCCAGCACUACAGAAAUGUAGUUGACGAGGAGAAGGUUUAUCGAAUUUUCGGCGGAUGCCUCCAAA [A14C G41A] | 0.000497 ± 9e-05 s⁻¹ |  | 0.000358 ± 6.2e-05 s⁻¹ | 6.95e-05 ± 1.3e-05 s⁻¹ | 0.000234 ± 4.5e-05 s⁻¹ | 3.49 ± 1 mM | 3.59e-05 ± 1.5e-05 s⁻¹ |
| AUAAAAGCGCCAGCACUACAGAAAUGUAGUUGACCAGGAGGAGGUUUAUCGAAUUUUCGGCGGAUGCCUCCAAA [A14C G35C] | < 1e-05 s⁻¹ | < 1e-05 s⁻¹ | < 1e-05 s⁻¹ |  |  |  |  |
| AUAAAAGCGCCAGCACUACAGAAAUGUAGUUGACGAGGAGGAGGUUUAUCGAAUUUUCGGCGGAUGCCUCGAAA [A14C C71G] | 0.000465 ± 0.00016 s⁻¹ |  | 0.00038 ± 4.5e-05 s⁻¹ | 0.000228 ± 7.6e-05 s⁻¹ | 0.00017 ± 2.9e-05 s⁻¹ |  | 3.11e-05 ± 1e-05 s⁻¹ |
| AUAAAAGCGCCAGCACUACAGAAAUGUAGUUGACGAGGAGGAGGUUUAUCGAAUUUUCGGCGGAUGCCUGCAAA [A14C C70G] | 0.00014 ± 1.4e-05 s⁻¹ |  | 0.000134 ± 1.3e-05 s⁻¹ | 5.83e-05 ± 7.3e-06 s⁻¹ | 9.83e-05 ± 1.1e-05 s⁻¹ | 0.866 ± 0.25 mM | 3.24e-05 ± 1.3e-05 s⁻¹ |
| AUAAAAGCGCCAGCACUACAGAAAUGUAUUUGACGAUAAGGAGGUUUAUCGAAUUUUCGGCGGAUGCCUACAAA [A14C G29U G37U G38A C70A] | 5.57e-05 ± 2e-05 s⁻¹ |  |  |  | 6.04e-05 ± 2.4e-05 s⁻¹ |  |  |
| AUAAAAGCGCCAGCACUACAGAAAUGUAGUUGACGAGGAGGAGGUUUAUCAAUUUUUCUGCGGAUGCUUCCAAA [A14C G51A A53U G59U C68U] | 3.12e-05 ± 1.2e-05 s⁻¹ |  |  |  |  |  |  |
| AUAAAAGCGCCAGCACUACAGAAAUGUAGUUCACGAGGAGGAGGUUUAUCGAAUUUUCGGCGGAUGCCUCCAAA [A14C G32C] | 0.000467 ± 2.4e-05 s⁻¹ |  | 0.000304 ± 3.5e-05 s⁻¹ | 4.87e-05 ± 1.2e-05 s⁻¹ | 0.000149 ± 2.1e-05 s⁻¹ | 5.35 ± 0.48 mM |  |
| AUAAAAGCGCCAGCACUACAGAAAUGUAGUUGACGAGGAGGAGGUUUAUCGACUUUUCGGCGGAUGCCUCCAAA [A14C A53C] | 0.00124 ± 0.00016 s⁻¹ | 2.58e-05 ± 1.2e-05 s⁻¹ | 0.000924 ± 0.00013 s⁻¹ | 0.000267 ± 3.4e-05 s⁻¹ | 0.000659 ± 7.9e-05 s⁻¹ | 2.55 ± 0.49 mM | 6.39e-05 ± 1e-05 s⁻¹ |
